From patent US8394929B2, “Nogo receptor-mediated blockade of axonal growth” (Yale University, priority 2000, dated 2013)

Legend:
[1] = test system: GST-Nogo-induced growth cone collapse; experiment: Blockade of Nogo-induced growth cone collapse in chick DRG cultures; format: cell-based; settings: GST-Nogo / Nogo-66 as collapsing agent
Protocol: (§1) For all experiments involving cell culture, the following methods were employed. The culture of embryonic chick E10 and E12 dorsal root ganglion explants and dissociated neurons utilized methods described for E7 dorsal root ganglion cultures (Takahashi et al., (1998) Nature Neurosci. 1, 487-493; Takahashi et al., (1999) Cell 99, 59-69; Goshima et al., (1995) Nature 376, 509-514; Jin & Strittmatter, (1997) J. Neurosci. […]). NGF-differentiated PC12 cells were cultured as described (Strittmatter et al., (1994) J. Neurosci. 14, 2327-2338). Embryonic spinal cord explants (rat E10 or chick E5) were cultured for 7-14 days in the presence of PDGF-AA to induce differentiation of some cells into mature oligodendrocytes (Vartanian et al., (1999) Proc. Natl. Acad. Sci. USA 96, 731-735). The procedure for growth cone collapse assays is identical to that for analysis of Sema3A-induced growth cone collapse (Takahashi et al., (1998) Nature Neurosci. 1, 487-493; Takahashi et al., (1999) Cell 99, 59-69; Goshima et al., (1995) Nature 376, 509-514; Jin & Strittmatter, (1997) J. Neurosci. 17, 6256-6263). The method for analysis of total neurite outgrowth has also been described (Goshima et al., (1995) Nature 376, 509-514; Jin & Strittmatter, (1997) J. Neurosci. 17, 6256-6263; Strittmatter et al., (1994) J. Neurosci. 14, 2327-2338). In outgrowth assays, proteins and peptides were added one hour after plating to minimize any effect on the total number of adherent cells. To test the effect of substrate-bound GST or GST-Nogo, the protein solutions were dried on poly-L-lysine coated glass, washed and then coated with laminin. For E12 cultures, the neuronal identity of cells was verified by staining with anti-neurofilament antibodies (2H3, Develomental Studies Hybridoma Bank) and neurites were traced by observation of rhodamine-phalloidin staining of F-actin in processes.
In the growth cone collapse assay, the response to Nogo was measured in the presence of various potential antagonistic peptides. […] This blockade supports the hypothesis that Nogo is a primary inhibitory component of CNS myelin.
For further testing, a synthetic peptide containing amino acid residues #1055-1094 of hNgR, acetylated at the […] was used [hereinafter “Peptide 140”]. […] Antagonist of Nogo-66 inhibitory activity may act by competing for, and thereby blocking NgR binding sites. To determine the antagonistic activity of Peptide 140, the above synthetic form of the peptide was added to E12 chick DRG explant cultures approximately 10 min before application of various concentrations of GST-NogoA (residues #1055-1120), TPA or Sema3A. 30 min later, cultures were fixed and growth cone collapse was assessed following staining with rhodamine-phalloidin.

mouse NgR = target: T1, mouse NgR (Mus musculus, UniProt Q99PI8); experiment: AP-fusion protein binding to COS-7 cells expressing mouse NgR
T1 construct: expressed in transfected cells; host or cells: COS-7
T1 sequence (Q99PI8 27-473): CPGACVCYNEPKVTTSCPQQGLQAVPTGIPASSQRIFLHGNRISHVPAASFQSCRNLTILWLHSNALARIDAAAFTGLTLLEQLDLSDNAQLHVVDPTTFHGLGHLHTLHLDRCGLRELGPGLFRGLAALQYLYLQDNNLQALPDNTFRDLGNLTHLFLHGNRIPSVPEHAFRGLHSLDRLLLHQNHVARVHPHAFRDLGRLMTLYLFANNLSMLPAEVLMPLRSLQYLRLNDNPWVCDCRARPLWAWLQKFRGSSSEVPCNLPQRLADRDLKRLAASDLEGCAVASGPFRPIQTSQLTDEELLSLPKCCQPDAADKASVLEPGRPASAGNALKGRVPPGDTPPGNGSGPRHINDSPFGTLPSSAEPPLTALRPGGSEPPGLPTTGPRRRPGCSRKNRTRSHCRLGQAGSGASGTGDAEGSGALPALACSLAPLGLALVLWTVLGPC
Protocol: To determine if AP-fused deletion mutants of Nogo-66 bind mouse NgR (“mNgR”), COS-7 cells were transfected with a plasmid encoding the mouse NgR sequence ligated into pcDNA3.1. 48 hours after transfection, cells were washed with HBH (Hanks balanced salt solution containing 20 mM sodium Hepes, pH 7.05, and 1 mg ml^−1 bovine serum albumin) and then incubated with condition medium containing one of the AP-fusion proteins described above for 2 hours at 37° C. Cells were then washed, fixed, and left in HBH at 67° C. for 14-16 h to inactivate endogenous AP. AP-fusion protein binding to NgR expressing COS-7 cells was detected with the substrates NBT and BCIP (FIG. 13b).
To determine whether mNgR or mNgR deletion mutants bound to hNogo-A (1055-1120), wtNgR or mNgR deletion mutants were transfected into COS-7 cells. Forty-eight hours after the transfection, the transfected COS-7 cells were washed with hanks balanced salt solution containing 20 mM sodium HEPES, pH 7.05, and 1 mg/ml bovine serum albumin (BSA) [hereinafter “HBH”]. Cells were then incubated for 2 hours at 23° C. with a conditioned medium enriched with purified AP-hNogo-A (1055-1120) diluted in HBH. AP-fusion protein was detected as previously described for AP-Sema3A (Takahashi et al., Nature Neurosci. 1:487-493, 1998).

[2] = test system: GST-Nogo-66 inhibition of neurite outgrowth; experiment: Blockade of Nogo-induced inhibition of neurite outgrowth in chick DRG neurons; format: cell-based
Protocol: as §1
Peptide 140 was tested for its ability to neutralize neurite outgrowth inhibition caused by the addition of GST fused to residues #1055-1120 of hNogoA (designated Nogo-66 in FIG. 16e). Plastic chamber slides were coated with 100 μg ml^−1 poly-L-lysine, washed, and dried. 3 μl drops of PBS containing GST-hNogoA(residues #1055-1120) were spotted and dried. Slides were then rinsed and coated with 10 μg ml fs24^−1 laminin before addition of dissociated E12 chick DRGs. Peptide 140 was added at the time of cell plating. Cultures were grown for 5-7 h after which neurite outgrowth was assessed.
Although the role of the GPI anchor may be to regulate NgR cellular compartmentalization, another possible role for the GPI linkage is to provide a NgR cleavage site. Cleaving NgR could serve to affect hNogo-A (1055-1120) signaling by rendering a neuron insensitive to hNogo-A (1055-1120) and by releasing soluble NgR that could then act on adjacent cells to modulate hNogo-A (1055-1120) signaling. To determine if soluble mNgR modulates hNogo-A (1055-1120)-dependent inhibition, a soluble mNgR was generated by inserting a truncated cDNA encoding mNgR residues 1-348 in frame with a myc-His carboxy tag into pcDNA3.1. The resulting plasmid expressing mNgREcto was transfected into HEK293T cells, and conditioned media containing mNgREcto protein was collected. To test the effect of mNgREcto on Nogo signaling, E13 dissociated DRGs were plated in the presence of hNogo-A (1055-1120) or myelin. The inhibitors were presented in either soluble or substrate-bound forms. For neurite outgrowth assays on hNogo-A (1055-1120) or myelin substrates, Permanox chamber slides were coated with 100μ, fs24 g ml^−1 poly-L-Lysine, washed, and then 3-μl drops of phosphate-buffered saline (hereinafter “PBS”) containing 0, 10, 50, or 150 ng of GST-hNogo-A (1055-1120) or myelin were spotted and dried. GST-hNogo-A (1055-1120) and myelin were prepared as previously described (GrandPre et al., supra; Fournier et al., J. Cell Biol. 149:411-421, 2000). After three PBS washes, slides were coated with 10 μg ml^−1 laminin. […]

[3] = test system: CNS myelin induced neurite outgrowth inhibition; experiment: Blockade of CNS myelin induced neurite outgrowth inhibition in chick DRG neurons; format: cell-based
Protocol: To determine the antagonistic activity of Peptide 140 against CNS myelin, the above synthetic peptide was added approximately 10 min before application of CNS myelin. 30 min later, cultures were fixed and growth cone collapse was assessed following staining with rhodamine-phalloidin. For neurite outgrowth assays, plastic chamber slide were coated with 100 μg ml^−1 poly-L-lysine, washed, and dried. 3 μl drops of PBS containing CNS myelin were spotted and dried. Slides were then rinsed and coated with 10 μg ml fs24^−1 laminin before addition of dissociated E12 chick DRGs. Peptide 140, or the scrambled version of Peptide 140, was added at the time of cell plating. Cultures were grown for 5-7 h after which neurite outgrowth was assessed.
Although the role of the GPI anchor may be to regulate NgR cellular compartmentalization, another possible role for the GPI linkage is to provide a NgR cleavage site. Cleaving NgR could serve to affect hNogo-A (1055-1120) signaling by rendering a neuron insensitive to hNogo-A (1055-1120) and by releasing soluble NgR that could then act on adjacent cells to modulate hNogo-A (1055-1120) signaling. To determine if soluble mNgR modulates hNogo-A (1055-1120)-dependent inhibition, a soluble mNgR was generated by inserting a truncated cDNA encoding mNgR residues 1-348 in frame with a myc-His carboxy tag into pcDNA3.1. The resulting plasmid expressing mNgREcto was transfected into HEK293T cells, and conditioned media containing mNgREcto protein was collected. To test the effect of mNgREcto on Nogo signaling, E13 dissociated DRGs were plated in the presence of hNogo-A (1055-1120) or myelin. The inhibitors were presented in either soluble or substrate-bound forms. For neurite outgrowth assays on hNogo-A (1055-1120) or myelin substrates, Permanox chamber slides were coated with 100μ, fs24 g ml^−1 poly-L-Lysine, washed, and then 3-μl drops of phosphate-buffered saline (hereinafter “PBS”) containing 0, 10, 50, or 150 ng of GST-hNogo-A (1055-1120) or myelin were spotted and dried. GST-hNogo-A (1055-1120) and myelin were prepared as previously described (GrandPre et al., supra; Fournier et al., J. Cell Biol. 149:411-421, 2000). After three PBS washes, slides were coated with 10 μg ml^−1 laminin. Laminin was then aspirated and dissociated E13 chick DRG neurons were added. After 6-8 hr of outgrowth, cultures were fixed and neurite outgrowth lengths were assessed. For blockade experiments with NgREcto, spots were incubated with HEK293T cell conditioned media or NgREcto-transfected-HEK293T cell conditioned media following for 1 hr following the laminin coating step and before the addition of dissociated neurons. […] Thus, soluble fragments of NgR might serve physiologically or pharmacologically to reduce GST-hNogo-A (1055-1120) inhibition of axonal regeneration.

Row | Substance | blockade of Nogo-induced growth cone collapse (in words) [1] | binding to NgR expressing COS-7 cells (in words) (mouse NgR) | other results
1 | 1-25: 25 amino acid peptide, residues 1-25 of the extracellular domain of Nogo (FRIYKGVIQAIQKSDEGHPFRAYLE) [Peptide 1-25] | blocking activity at μM concentrations | – | –
2 | 1-30: peptides having residues 1-30 of hNogoA (#1055-1120) (RIYKGVIQAIQKSDEGHPFRAYLESEVAIS; UniProt Q9NQC3 1055-1084, looked up, fragment) [Peptide 1-30] | – | almost no binding | –
3 | 1-31: peptides having residues 1-31 of hNogoA (#1055-1120) (RIYKGVIQAIQKSDEGHPFRAYLESEVAISE; UniProt Q9NQC3 1055-1085, looked up, fragment) [Peptide 1-31] | – | almost no binding | –
4 | 1-33: peptides having residues 1-33 of hNogoA (#1055-1120) (RIYKGVIQAIQKSDEGHPFRAYLESEVAISEEL; UniProt Q9NQC3 1055-1087, looked up, fragment) [Peptide 1-33] | – | – | binding to mNgR, less compared to the strong binders (mouse NgR; data not shown): approximately 50%
5 | 1-34: peptides having residues 1-34 of hNogoA (#1055-1120) (RIYKGVIQAIQKSDEGHPFRAYLESEVAISEELV; UniProt Q9NQC3 1055-1088, looked up, fragment) [Peptide 1-34] | – | bind strongly and almost equivalently | –
6 | 2-40: peptides having residues 2-40 of the hNogoA (#1055-1120) (IYKGVIQAIQKSDEGHPFRAYLESEVAISEELVQKYSNS; UniProt Q9NQC3 1056-1094, looked up, fragment) [Peptide 2-40] | – | bound mNgR well | –
7 | 10-40: peptides having residues 10-40 of hNogoA (#1055-1120) (IQKSDEGHPFRAYLESEVAISEELVQKYSNS) [Peptide 10-40] | – | no binding | –
8 | 11-35: 25 amino acid peptide, residues 11-35 of the extracellular domain of Nogo (IQKSDEGHPFRAYLESEVAISEELV) [Peptide 11-35] | blocking activity at μM concentrations | – | –
9 | 21-45: 25 amino acid peptide, residues 21-45 of the extracellular domain of Nogo (RAYLESEVAISEELVQKYSNSALGH) [Peptide 21-45] | blocking activity at μM concentrations | – | –
10 | acetyl-SYVKEYAPIFAGKSRGEIKYQSIEIHEAQVRSDELVQSLN-amide (Ac-SYVKEYAPIFAGKSRGEIKYQSIEIHEAQVRSDELVQSLN-NH2) [scrambled version of Peptide 140, reference compound] | – | – | blockade of Nogo-induced neurite outgrowth inhibition (in words) [2]: does not result in blockade of outgrowth inhibition; blockade of CNS myelin induced neurite outgrowth inhibition (in words) [3]: ineffective
